Measurements published in patent publication US20070225226A1, “C-REACTIVE PROTEIN APHERESIS” (The American National Red Cross, priority 2006, published 2007).
Where two headings read alike, the source gives them in different places. Non-standard residues stand in square brackets, D forms with d. No end group written: not given here. 2Nal = N[C@@H](Cc1ccc2ccccc2c1)C(=O)O

Experiments:
CRP [1] = biological target: T1, CRP (Homo sapiens, UniProt P02741); conditions: rats undergoing acute myocardial infarction, human CRP injected; reference (24); cited from earlier work
T1 sequence (P02741 19-224): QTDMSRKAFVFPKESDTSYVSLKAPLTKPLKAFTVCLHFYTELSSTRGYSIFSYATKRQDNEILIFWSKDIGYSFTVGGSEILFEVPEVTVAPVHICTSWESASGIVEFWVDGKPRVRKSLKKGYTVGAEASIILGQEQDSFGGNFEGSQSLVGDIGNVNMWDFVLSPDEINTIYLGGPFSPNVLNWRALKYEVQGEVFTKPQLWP

CRP [2] = biological target: T1, CRP; test: Ability of resins to bind endogenous CRP from serum (LDS gel / Western blot of supernatant and eluate); format: binding; set-up: from tissue; host or cells: serum; conditions: two hours at room temperature, FIG. 1; for CRP detected in the supernatant after incubation with resin: 90 μl resin, 300 μl serum containing endogenous CRP; for binding of endogenous CRP by the resin: serum containing endogenous CRP
Experimental: Several of the sequences identified in Example 2 were synthesized at gram scale to assay their ability to bind CRP. 90 μl of resin of ligands eSFAZZ (SEQ ID NO: 3), hGYIGL (SEQ ID NO: 8), vLRPWK (SEQ ID NO: 4), wZQKNH (SEQ ID NO: 7) and kZPDLH (SEQ ID NO: 6) (Z denotes 2′naphthylananine, small letters denote D amino acids, and capital letters denote L amino acids) were incubated with 300 μl of serum containing endogenous CRP, for two hours at room temperature. The supernatant was collected and the protein bound to the beads was eluted by incubation at 70° C. for ten minutes in 2×LDS sample buffer (Invitrogen). 10 μl of incubation supernatant or resin eluate was loaded per lane in an LDS gel and the proteins transferred to a nitrocellulose membrane. CRP was detected on the membrane using mouse anti-human CRP monoclonal antibody CRP-8 (Cat#C-1688, Lot# 094K4803), C=9.1 mg/ml (Sigma-Aldrich, St. Louis, Mo.) and affinity purified phosphatase labeled goat anti mouse IgG(□) human serum adsorbed (Cat#075-1802, Lot# XE084) (KPL, Gaithersburg, Md., USA).
This was confirmed by the detection of CRP in the eluates from these resins. The opposite is true for the remaining resins. […] It should be noted that all three of these ligands have a positively charged amino acid at the carboxy terminus (K or H) while none of the negative resins have the positively charged residue.

CRP [3] = biological target: T1, CRP; test: Equilibrium capacity for binding CRP spiked into plasma or citrate buffer (unbound CRP measured by ELISA); conditions: 80 μl resin, two hours at room temperature
Experimental: The equilibrium capacity of wZQKNH (SEQ ID NO: 7) for binding CRP was determined with CRP spiked into 200 μl of plasma or citrate buffer. 80 μl of wZQKNH resin was mixed with the spiked materials and allowed to incubate for two hours at room temperature. The supernatant was collected and CRP remaining in the supernatant (unbound fraction) was measured by ELISA. The apparent dissociation constant (the reciprocal of the association constant) for CRP bound from buffer was 12.8×10^−9 M whereas the apparent dissociation constant for CRP bound from plasma was 370×10^−9M, indicating a level of interference in plasma, possibly arising from CRP associating with other plasma proteins which may alter its dissociation constant.

[4] = biological target: Human CRP (C-reactive protein) (human) (UniProt P02741); test: Equilibrium binding of CRP spiked into plasma to 80 ul wZQKNH resin, 2 h at room temperature; unbound CRP measured by ELISA; apparent KD
[5] = biological target: Human CRP (C-reactive protein) (human) (UniProt P02741); test: Equilibrium binding of CRP spiked into citrate buffer to 80 ul wZQKNH resin, 2 h at room temperature; unbound CRP measured by ELISA; apparent KD

CRP detected in the supernatant after incubation with resin (CRP [2])	binding of endogenous CRP by the resin (CRP [2])	Compound	further results
–	–	C[N+](C)(C)CCOP(=O)([O-])OCCCCCCOP(=O)([O-])OCC[N+](C)(C)C [1,6-bis(phosphocholine)-hexane]	increase in infarct size and cardiac dysfunction produced by human CRP (CRP [1]): abrogate
No CRP was detected	appear to bind endogenous CRP	Lys-Nal-Pro-Asp-Leu-His ([dK][2Nal]PDLH) [kZPDLH, hexamer peptide ligand on Toyopearl resin; Z denotes 2′naphthylalanine]	–
No CRP was detected	appear to bind endogenous CRP	Trp-Nal-Gln-Lys-Asn-His ([dW][2Nal]QKNH) [wZQKNH, hexamer peptide ligand on Toyopearl resin; Z denotes 2′naphthylalanine]	Kd (CRP [3]; CRP spiked into citrate buffer, read-out: apparent dissociation constant for CRP bound from buffer): 12.8 nM; Kd (CRP [3]; CRP spiked into plasma, read-out: apparent dissociation constant for CRP bound from plasma): 370 nM
No CRP was detected	appear to bind endogenous CRP	VLRPWK [hexamer peptide ligand on Toyopearl resin]	–
–	–	wZQKNH (SEQ ID NO: 7) (peptide)	Kd [4]: 370 nM; Kd [5]: 12.8 nM
